# Measurements: the MegaScale stability set (Tsuboyama et al. 2023)
# B1: EHEE_rd2_1257 (parent)
# chain: EEERTFTNEEEARKAKKEAEKRGLRVTVTKDGTTWRVRIG
# Variants of: B1
# Test: folding stability dG (cDNA display proteolysis); higher = more stable
# Settings: PBS, room temperature
row,Variant,folding stability dG [kcal/mol]
1,EEERTFTNEEEARKAKKEAEKRGLRVTFTKDGTTWRVRIG,1.45
2,EEERTVTNEEEARKAKKEAEKRGLRVTVTKDGTTWRVRIG,0.21
3,EEERTFTNEGEARKAKKEAEKRGLRVTVTKDGTTWRVRIG,1.81
4,EEERTFTNEAEARKAKKEAEKRGLRVTVTKDGTTWRVRIG,2.16
5,EEERTFTNEYEARKAKKEAEKRGLRVTVTKDGTTWRVRIG,2.21
6,EEERTFTNEEEARKAKKEAEGRGLRVTVTKDGTTWRVRIG,2.11
7,EEERTFTNEEEARKAKKEAEVRGLRVTVTKDGTTWRVRIG,1.82
8,EEERTFTNEEEARKAKKEAEDRGLRVTVTKDGTTWRVRIG,2.25
9,EEERTFTNEEEARKAKKEAEWRGLRVTVTKDGTTWRVRIG,1.71
10,EEESTFTNEEEARKAKKEAEKRGLRVTVTKDGTTWRVRIG,1.46
11,EEEHTFTNEEEARKAKKEAEKRGLRVTVTKDGTTWRVRIG,2.17
12,EEEPTFTNEEEARKAKKEAEKRGLRVTVTKDGTTWRVRIG,0.462
13,EEEETFTNEEEARKAKKEAEKRGLRVTVTKDGTTWRVRIG,1.37
14,EENRTFTNEEEARKAKKEAEKRGLRVTVTKDGTTWRVRIG,1.37
15,EESRTFTNEEEARKAKKEAEKRGLRVTVTKDGTTWRVRIG,1.66
16,EEIRTFTNEEEARKAKKEAEKRGLRVTVTKDGTTWRVRIG,2.48
17,EEERTFTNEEEARKAKKEAEKRGLRVTVTKDDTTWRVRIG,1.26
18,EEERTFTNEEEARKAKKEAEKRGLRVTVTKDMTTWRVRIG,0.351
19,EEERTFTNEEEARKAKKEAEKRGLRVTVTKDGTTWVVRIG,2.78
20,EEERTFTNEEEARKAKKEAEKRGLRVTVTKYGTTWRVRIG,1.75
21,EEERTFTNEEEARKAKKEAEKRGLRVTVTKIGTTWRVRIG,2.22

row,Variant,folding stability dG [kcal/mol]
1,EEERTFTDEEEARKAKKEAEKRGLRVTVTKDGTTWRVRIG,1.76
2,EEERTFTVEEEARKAKKEAEKRGLRVTVTKDGTTWRVRIG,1.43
3,EEERTFTNEEEARKAKKEAMKRGLRVTVTKDGTTWRVRIG,1.66
4,EEERTFTNEEEARKAKKEAVKRGLRVTVTKDGTTWRVRIG,1.39
5,EEERTFTNEEEARKAKKEAEKRGLRVTVTKDGTYWRVRIG,2.4
6,EEERTFTNEEEARKAKKEAEKRGLRVTVTKDGTGWRVRIG,1.83
7,EEERTFTNEEEARKAKKEAEKRGLRVTVTKDGTDWRVRIG,1.53
8,EEERTFTNEEEARKAKKEAEKRGLRVTVTKDGTVWRVRIG,2.62
9,EEERTFTNSEEARKAKKEAEKRGLRVTVTKDGTTWRVRIG,1.35
10,EEERTFTNGEEARKAKKEAEKRGLRVTVTKDGTTWRVRIG,1.42
11,EEERTFTNEEEAAKAKKEAEKRGLRVTVTKDGTTWRVRIG,1.93
12,EEERTFTNEEEARKAKKEAEKRGLRVTVTKDGTTWRVRMG,1.37
13,EEERTFTNEEEARKAKKEAEKRGLRVTVTKDGTTWRVRNG,-0.51
14,EEERTFTNEEEARKAKKEAEKRGLRVTVTKDGTTWRVRRG,-0.309
15,EEERTFTNEEEARKAKKEAEKRGLRVTVTKDGNTWRVRIG,2.63
16,VEERTFTNEEEARKAKKEAEKRGLRVTVTKDGTTWRVRIG,2.57
17,EEERTFTNEEEARKAKKEAEKRYLRVTVTKDGTTWRVRIG,0.68
18,EEERTFTNEEEARKAKKEAEKRGLHVTVTKDGTTWRVRIG,2.15
19,EEERTFTNEEEARKAKKEAEKRGLRVLVTKDGTTWRVRIG,1.58
20,EEERTFTNEEEARKAKKEAEKRGLRVSVTKDGTTWRVRIG,1.77
21,EEERTFTNEEEARKAKKEAEKRGLRVTVTEDGTTWRVRIG,1.31

row,Variant,folding stability dG [kcal/mol]
1,EEERTFTNEEEARKAKKEAEKRGLRVTVTTDGTTWRVRIG,2.57
2,EEERTFTNEEEARKAKKEAEKRGLRVTVTQDGTTWRVRIG,2.13
3,EEERTFTNEEEARKAVKEAEKRGLRVTVTKDGTTWRVRIG,3
4,EEERTFTNEEEARKAKDEAEKRGLRVTVTKDGTTWRVRIG,2.44
5,EEERTFTNEEEARKAKSEAEKRGLRVTVTKDGTTWRVRIG,2.19
6,EEERTFTNEERARKAKKEAEKRGLRVTVTKDGTTWRVRIG,0.608
7,EEERTFTNEECARKAKKEAEKRGLRVTVTKDGTTWRVRIG,1.56
8,EEERTFTNEEPARKAKKEAEKRGLRVTVTKDGTTWRVRIG,-0.587
9,EEERTFTNEEEARKAKKEAEKVGLRVTVTKDGTTWRVRIG,1.45
10,EEERTFTNEEEARKAKKEAEKRGLRVTVTKDGTTWRVRIR,2.08
11,EEERTFTNEEEARKAKKEAEKRGLRVTVTKDGTTWRVRIM,2.55
12,EEERTFVNEEEARKAKKEAEKRGLRVTVTKDGTTWRVRIG,1.7
13,EEERTFTNEEEARKAKKEAEKRGLRVTVVKDGTTWRVRIG,2.18
14,EEERTFTNEEEARKAKKEAEKRGLRVTVIKDGTTWRVRIG,2.36
15,EEERTFTNEEEARKAKKEIEKRGLRVTVTKDGTTWRVRIG,1.53
16,EEERTFTNEEEARKGKKEAEKRGLRVTVTKDGTTWRVRIG,-0.185
17,EEERTFTNEEEARKTKKEAEKRGLRVTVTKDGTTWRVRIG,1.19
18,EEERTFTNEEEARKAKKGAEKRGLRVTVTKDGTTWRVRIG,0.934
19,EEERTFTNEEEARKAKKWAEKRGLRVTVTKDGTTWRVRIG,2.24
20,EYERTFTNEEEARKAKKEAEKRGLRVTVTKDGTTWRVRIG,2.85
21,ERERTFTNEEEARKAKKEAEKRGLRVTVTKDGTTWRVRIG,1.97
